Measurements as given in patent US20230265151A1, “GIP/GLP1 CO-AGONIST COMPOUNDS” (priority 2020, published 2023).
Where a chain is given by its changes, count along the chain named.

T1: human GIP receptor (human, UniProt P48546 22-466)
T1 construct: whole, on cells; also called hGIPR; human glucose-dependent insulinotropic polypeptide receptor
T1 sequence (looked up): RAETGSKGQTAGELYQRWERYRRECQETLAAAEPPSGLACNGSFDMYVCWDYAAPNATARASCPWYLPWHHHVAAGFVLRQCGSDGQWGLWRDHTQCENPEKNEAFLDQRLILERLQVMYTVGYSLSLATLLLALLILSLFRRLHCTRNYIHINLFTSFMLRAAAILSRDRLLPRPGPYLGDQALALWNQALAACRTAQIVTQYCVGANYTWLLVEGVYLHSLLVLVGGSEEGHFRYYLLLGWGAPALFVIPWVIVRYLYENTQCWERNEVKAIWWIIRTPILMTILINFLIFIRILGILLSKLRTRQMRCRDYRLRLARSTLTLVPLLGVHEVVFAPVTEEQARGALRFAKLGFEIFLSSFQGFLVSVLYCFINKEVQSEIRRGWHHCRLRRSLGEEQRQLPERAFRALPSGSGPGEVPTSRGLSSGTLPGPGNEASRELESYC

B1: Y-Aib-EGT-αMeF(2F)-TSD-4Pal-Aib-I-αMeL-LD-Orn-QAQ-Aib-EFIK((2-[2-(2-Amino-ethoxy)-ethoxy]-acetyl)2-(γ-Glu)-(10-(4-carboxyphenoxy)decanoyl))-αMeY-LIK((2-[2-(2-Am … (peptide)
peptide: YXEGTXTSDXXIXLDXQAQXEFIKXLIKGGPSSGAPPPS
modifications: Aib2, αMeF(2F)6, 4Pal10, Aib11, αMeL13, Orn16, Aib20, K24(Z1), αMeY25, K28(Z1), C-term NH2; Z1=AEEA2-(γ-Glu)-(10-(4-carboxyphenoxy)decanoyl)
B2: Y-Aib-EGT-αMeF(2F)-TSD-4Pal-αMeS-I-αMeL-LD-Orn-IAQ-Aib-EFIK((2-[2-(2-Amino-ethoxy)-ethoxy]-acetyl)2-(γ-Glu)-CO-(CH2)12-CO2H)-αMeY-LIK((2-[2-(2-Amino-ethoxy)-eth … (peptide)
peptide: B1 peptide with Q17I
modifications: Aib2, αMeF(2F)6, 4Pal10, αMeS11, αMeL13, Orn16, Aib20, K24(Z1), αMeY25, K28(Z1), C-term NH2; Z1=AEEA2-(γ-Glu)-CO-(CH2)12-CO2H
B3: Y-Aib-EGT-αMeF(2F)-TSD-4Pal-Aib-I-αMeL-LD-Orn-IAQ-Aib-EFIK((2-[2-(2-Amino-ethoxy)-ethoxy]-acetyl)2-(γ-Glu)-CO-(CH2)12-CO2H)-αMeY-LIK((2-[2-(2-Amino-ethoxy)-etho … (peptide)
peptide: B1 peptide with Q17I
modifications: Aib2, αMeF(2F)6, 4Pal10, Aib11, αMeL13, Orn16, Aib20, K24(Z1), αMeY25, K28(Z1), C-term NH2; Z1=AEEA2-(γ-Glu)-CO-(CH2)12-CO2H
B4: Y-Aib-EGT-αMeF(2F)-TSD-4Pal-Aib-I-αMeL-LD-Orn-IAQ-Aib-EFIK((2-[2-(2-Amino-ethoxy)-ethoxy]-acetyl)2-(γ-Glu)-(10-(4-carboxyphenoxy)decanoyl))-αMeY-LIK((2-[2-(2-Am … (peptide)
peptide: B1 peptide with Q17I
modifications: Aib2, αMeF(2F)6, 4Pal10, Aib11, αMeL13, Orn16, Aib20, K24(Z1), αMeY25, K28(Z1), C-term NH2; Z1=AEEA2-(γ-Glu)-(10-(4-carboxyphenoxy)decanoyl)
B5: Y-Aib-EGT-αMeF(2F)-TSD-4Pal-SI-αMeL-LD-Orn-K((2-[2-(2-Amino-ethoxy)-ethoxy]-acetyl)2-CO-(CH2)12-CO2H)AQ-Aib-K((2-[2-(2-Amino-ethoxy)-ethoxy]-acetyl)2-CO-(CH2)12 … (peptide)
peptide: YXEGTXTSDXSIXLDXKAQXKFIXXLIEGGPSSGAPPPS
modifications: Aib2, αMeF(2F)6, 4Pal10, αMeL13, Orn16, K17(Z1), Aib20, K21(Z1), D-Glu24, αMeY25, C-term NH2; Z1=AEEA2-CO-(CH2)12-CO2H
B6: Y-Aib-EGT-αMeF(2F)-TSD-4Pal-SI-αMeL-LD-Orn-K((2-[2-(2-Amino-ethoxy)-ethoxy]-acetyl)2-(γ-Glu)-CO-(CH2)12-CO2H)AQ-Aib-E-1Nal-I-(D-Glu)-αMeY-LIEGGK((2-[2-(2-Amino- … (peptide)
peptide: B5 peptide with K21E, F22X, P31K
modifications: Aib2, αMeF(2F)6, 4Pal10, αMeL13, Orn16, K17(Z1), Aib20, 1Nal22, D-Glu24, αMeY25, K31(Z1), C-term NH2; Z1=AEEA2-(γ-Glu)-CO-(CH2)12-CO2H
B7: Y-Aib-EGT-αMeF(2F)-TSDY-Aib-I-αMeL-LD-Orn-K((2-[2-(2-Amino-ethoxy)-ethoxy]-acetyl)2-(γ-Glu)-CO-(CH2)12-CO2H)AQ-Aib-EFI-(D-Glu)-αMeY-LIEGGK((2-[2-(2-Amino-ethoxy … (peptide)
peptide: B5 peptide with X10Y, S11X, K21E, P31K
modifications: Aib2, αMeF(2F)6, Aib11, αMeL13, Orn16, K17(Z1), Aib20, D-Glu24, αMeY25, K31(Z1), C-term NH2; Z1=AEEA2-(γ-Glu)-CO-(CH2)12-CO2H
B8: Y-Aib-EGT-αMeF(2F)-TSD-4Pal-SI-αMeL-LD-Orn-K((2-[2-(2-Amino-ethoxy)-ethoxy]-acetyl)2-(γ-Glu)-CO-(CH2)12-CO2H)AQ-Aib-EFIK((2-[2-(2-Amino-ethoxy)-ethoxy]-acetyl)2 … (peptide)
peptide: B5 peptide with K21E, X24K
modifications: Aib2, αMeF(2F)6, 4Pal10, αMeL13, Orn16, K17(Z1), Aib20, K24(Z1), αMeY25, C-term NH2; Z1=AEEA2-(γ-Glu)-CO-(CH2)12-CO2H
B9: Y-Aib-EGT-αMeF(2F)-TSD-αMeL-SI-aMeL-LD-Orn-K((2-[2-(2-Amino-ethoxy)-ethoxy]-acetyl)2-(γ-Glu)-CO-(CH2)12-CO2H)AQ-Aib-EFI-(D-Glu)-αMeY-LIEGGK((2-[2-(2-Amino-ethox … (peptide)
peptide: B5 peptide with K21E, P31K
modifications: Aib2, αMeF(2F)6, αMeL10, αMeL13, Orn16, K17(Z1), Aib20, D-Glu24, αMeY25, K31(Z1), C-term NH2; Z1=AEEA2-(γ-Glu)-CO-(CH2)12-CO2H
B10: Y-Aib-EGT-αMeF(2F)-TSD-OMeY-SI-αMeL-LD-Orn-K((2-[2-(2-Amino-ethoxy)-ethoxy]-acetyl)2-(γ-Glu)-CO-(CH2)12-CO2H)AQ-Aib-EFI-(D-Glu)-αMeY-LIEGGK((2-[2-(2-Amino-ethox … (peptide)
peptide: B5 peptide with K21E, P31K
modifications: Aib2, αMeF(2F)6, OMeY10, αMeL13, Orn16, K17(Z1), Aib20, D-Glu24, αMeY25, K31(Z1), C-term NH2; Z1=AEEA2-(γ-Glu)-CO-(CH2)12-CO2H

What follows are binders tested against T2, human glucagon receptor (human, UniProt P47871 26-477) (assay: SPA competition vs [125I]-Gcg, hGcgR membranes).
T2 construct: whole, on cells; also called hGCGR; hGcgR
T2 sequence (P47871 26-477): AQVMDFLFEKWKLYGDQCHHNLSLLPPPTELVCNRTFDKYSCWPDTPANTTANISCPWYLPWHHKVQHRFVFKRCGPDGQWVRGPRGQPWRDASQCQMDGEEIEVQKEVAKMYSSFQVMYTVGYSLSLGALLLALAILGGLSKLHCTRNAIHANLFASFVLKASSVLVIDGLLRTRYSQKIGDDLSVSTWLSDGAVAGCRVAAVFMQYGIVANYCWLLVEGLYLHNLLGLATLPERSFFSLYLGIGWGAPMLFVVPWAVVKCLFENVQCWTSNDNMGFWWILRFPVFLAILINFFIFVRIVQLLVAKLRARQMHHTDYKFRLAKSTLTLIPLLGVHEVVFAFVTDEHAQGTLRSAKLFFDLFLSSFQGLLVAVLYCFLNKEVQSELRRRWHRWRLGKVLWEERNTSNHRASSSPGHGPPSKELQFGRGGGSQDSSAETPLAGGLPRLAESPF
Method: The binding buffer contains 25 mM 4-(2-hydroxyethyl)-1-piperazineethanesulfonic acid (HEPES), pH 7.4, 2.5 mM CaCl₂, 1 mM MgCh, 0.1% (w/v) bacitracin (Research Products), 0.003% (w/v) Polyoxyethylenesorbitan monolaurate (TWEEN®-20), and Roche Complete™ Protease Inhibitors without EDTA. […] Plates are sealed and mixed on a plate shaker (setting 6) for 1 minute and read with a PerkinElmer Trilux MicroBeta® scintillation counter after 12 hours of incubation/settling time at room temperature.
Data are analyzed using four-parameter (curve maximum, curve minimum, IC₅₀, Hill slope) nonlinear regression routines (Genedata Screener, version 12.0.4, Genedata AG, Basal, Switzerland). […] Values for Kᵢ are reported as the geometric mean, with error expressed as the standard error of the mean (SEM) and n is equal to the number of independent replicates (determined in assays performed on different days).
B1 showed a Ki of 134 nM. For B2, the Ki was 328 nM. B3 gave a Ki of 135 nM. For B4, the Ki was 44.6 nM. With B5 the Ki was 625 nM. Work on B6 yielded a Ki of 4150 nM. B7 showed a Ki of 42 nM. B8 was tested, and the Ki was 707 nM. B9 showed a Ki of 51.7 nM. B10 showed a Ki of 1920 nM.

The binders below were run against T3, human GLP-1 receptor (human, UniProt P43220 24-463) (assay: SPA competition vs [125I]-GLP-1, hGLP-1R membranes).
T3 construct: whole, on cells; also called hGLP-1R; human glucagon-like peptide-1 receptor
Method in brief: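 Competition binding in 25 mM HEPES pH 7.4, 2.5 mM CaCl₂, 1 mM MgCl₂, 0.1% bacitracin, 0.003% TWEEN-20, EDTA-free protease inhibitors. IC₅₀ from four-parameter nonlinear fit; Kᵢ given as geometric mean ± SEM, n = independent replicates on different days.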
Work on B1 yielded a Ki of 0.424 nM. Work on B2 yielded a Ki of 0.863 nM. With B3 the Ki was 0.939 nM. B4 was tested, and the Ki was 0.557 nM. B5 showed a Ki of 0.881 nM. B6 showed a Ki of 1.55 nM. B7 gave a Ki of 0.876 nM. B8 was tested, and the Ki was 1.4 nM. B9 was tested, and the Ki was 1.64 nM. In the case of B10, the Ki is reported as 1.15 nM.

Each binder was assayed against T1, human GIP receptor (assay: SPA competition vs [125I]-GIP, hGIPR membranes).
For B1, the Ki was 0.0375 nM. For B2, the Ki was 0.0491 nM. In the case of B3, the Ki is reported as 0.114 nM. In the case of B4, the Ki is reported as 0.0432 nM. B5 was tested, and the Ki was 0.0627 nM. In the case of B6, the Ki is reported as 0.263 nM. Binder B7 has a Ki of 0.0296 nM. Work on B8 yielded a Ki of 0.054 nM. In the case of B9, the Ki is reported as 0.0741 nM. In the case of B10, the Ki is reported as 0.208 nM.
